Assay results taken from CN116284407A (SUNSHINE GUOJIAN PHARMACEUTICAL SHANGHAI CO LTD, dated 2023).

Tests used:
人GUCY2C-His蛋白 = molecular target: T1, 人GUCY2C-His蛋白 (human, UniProt P25092 24-430); experiment: ELISA, GUCY2C-His coated at 0.1 ug/mL, HRP anti-mouse secondary (Table 3)
T1 construct: extracellular domain

人GUCY2C-Fc蛋白 = molecular target: T2, 人GUCY2C-Fc蛋白 (human, UniProt P25092 24-430); experiment: indirect ELISA, GUCY2C-Fc coated at 1 ug/mL, HRP anti-mouse IgG
T2 construct: extracellular domain; not shown: human IgG1 Fc at the C-terminus
T2 sequence (P25092 24-430): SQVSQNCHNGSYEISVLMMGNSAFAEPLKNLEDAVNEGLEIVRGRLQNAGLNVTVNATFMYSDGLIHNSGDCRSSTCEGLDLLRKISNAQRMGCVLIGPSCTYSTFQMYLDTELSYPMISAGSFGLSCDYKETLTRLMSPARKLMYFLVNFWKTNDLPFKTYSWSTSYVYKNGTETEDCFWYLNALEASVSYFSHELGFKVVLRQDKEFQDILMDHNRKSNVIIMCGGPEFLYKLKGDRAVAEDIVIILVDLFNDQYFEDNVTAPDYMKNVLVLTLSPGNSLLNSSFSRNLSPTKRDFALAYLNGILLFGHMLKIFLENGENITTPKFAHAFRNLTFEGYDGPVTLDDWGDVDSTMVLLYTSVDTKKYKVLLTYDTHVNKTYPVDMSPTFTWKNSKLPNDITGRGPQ

[1] = molecular target: T3, 人GUCY2C on cells (人结肠癌细胞CW2; GUCY2C过表达肿瘤细胞CW2-GCC#1) (human, UniProt P25092 24-1073); experiment: flow cytometry on CW2 human colon cancer cells, PE anti-mouse secondary
T3 construct: whole, on cells; the gene put into CW2-GCC#1 is only called GUCY2C
T3 sequence (P25092 24-1073): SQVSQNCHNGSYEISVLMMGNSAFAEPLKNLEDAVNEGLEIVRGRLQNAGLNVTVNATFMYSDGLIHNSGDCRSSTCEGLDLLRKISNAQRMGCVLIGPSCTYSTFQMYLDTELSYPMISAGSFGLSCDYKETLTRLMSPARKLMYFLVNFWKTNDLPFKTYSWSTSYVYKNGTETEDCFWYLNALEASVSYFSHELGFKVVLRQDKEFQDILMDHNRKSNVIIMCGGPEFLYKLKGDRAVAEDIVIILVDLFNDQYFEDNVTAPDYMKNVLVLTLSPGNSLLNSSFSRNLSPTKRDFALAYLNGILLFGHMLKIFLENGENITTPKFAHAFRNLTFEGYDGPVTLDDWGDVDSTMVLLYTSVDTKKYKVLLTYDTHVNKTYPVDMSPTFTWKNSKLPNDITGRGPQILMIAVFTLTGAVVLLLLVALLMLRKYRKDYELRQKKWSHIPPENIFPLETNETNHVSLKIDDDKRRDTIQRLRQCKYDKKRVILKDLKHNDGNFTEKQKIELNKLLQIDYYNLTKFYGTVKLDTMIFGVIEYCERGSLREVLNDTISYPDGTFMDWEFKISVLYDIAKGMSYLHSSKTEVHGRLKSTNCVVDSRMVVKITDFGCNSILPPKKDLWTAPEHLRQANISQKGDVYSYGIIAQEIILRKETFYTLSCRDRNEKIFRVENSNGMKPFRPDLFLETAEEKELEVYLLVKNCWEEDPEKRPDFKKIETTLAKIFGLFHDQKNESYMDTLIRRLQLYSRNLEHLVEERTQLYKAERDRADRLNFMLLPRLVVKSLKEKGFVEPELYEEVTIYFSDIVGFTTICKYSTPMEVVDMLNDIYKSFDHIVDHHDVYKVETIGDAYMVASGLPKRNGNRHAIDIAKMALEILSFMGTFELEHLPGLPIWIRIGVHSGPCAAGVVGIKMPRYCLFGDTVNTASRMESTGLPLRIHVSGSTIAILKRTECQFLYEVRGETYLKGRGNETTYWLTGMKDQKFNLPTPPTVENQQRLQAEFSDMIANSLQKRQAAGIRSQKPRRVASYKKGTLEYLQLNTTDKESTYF

T1 sequence (P25092 other isoform, or with tags, fused parts or gaps): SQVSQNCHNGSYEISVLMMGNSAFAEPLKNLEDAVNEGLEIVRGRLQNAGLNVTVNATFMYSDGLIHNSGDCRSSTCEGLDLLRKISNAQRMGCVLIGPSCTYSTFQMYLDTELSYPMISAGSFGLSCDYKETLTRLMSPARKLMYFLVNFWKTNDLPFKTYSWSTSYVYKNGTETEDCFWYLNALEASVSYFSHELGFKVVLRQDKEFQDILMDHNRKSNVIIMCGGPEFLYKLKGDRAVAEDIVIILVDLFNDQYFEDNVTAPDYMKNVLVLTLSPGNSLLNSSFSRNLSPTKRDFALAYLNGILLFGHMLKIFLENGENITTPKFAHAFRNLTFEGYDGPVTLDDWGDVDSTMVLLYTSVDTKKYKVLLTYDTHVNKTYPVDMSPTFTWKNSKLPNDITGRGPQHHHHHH

B1: 55G7A7H2 (antibody, V domains shown)
VH: QVQLQQSGADLARPGASVKMSCKASGYTFTSYTMHWVKQRPGQGLEWIGYINPSSGYTNYNQKFQDKATLTADKSSSTAYMQLSSLTSEDSAVYYCARLGRIGVYWGQGTTLTVSS
VL: QIVLSQSPAILSAFPGEKVTLTCRASSSVSFIHWYQQKPGSSPKPWIYATSNLASGVPDRFSGSGSGTSFSFTISRVEAEDAATYYCQQWSSNPWTFGGGTKLEIK
EC50 (人GUCY2C-His蛋白): 0.12 nM
EC50 (人GUCY2C-Fc蛋白): 0.0215 µg/mL
EC50 [1]: 6.27 µg/mL
